B1: GST-partial Synoviolin: GST fusion protein of a portion of Synoviolin (cDNA 1799 bp; SEQ ID NO: 1, No. 1233-3031) expressed in E. coli (protein)
chain: PPVPPPPSSGEAVAPPSTSAAALSRPSGAATTTAAGTSATAASATASGPGSGSAPEAGPAPGFPFPPPWMGMPLPPPFAFPPMPVPPAGFAGLTPEELRALEGHERQHLEARLQSLRNIHTLLDAAMLQINQYLTVLASLGPPRPATSVNSTEGTATTVVAAASSTSIPSSEATTPTPGASPPAPEMERPPAPESVGTEEMPEDGEPDAAELRRRRLQKLESPVAH
modifications: left off: a dimerising Fc or GST
B2: GST-SL: GST fusion protein of Synoviolin ligand (SL), thought to be the same protein as S1-5 (protein)
chain: QDTEETITYTQCTDGYEWDPVRQQCKDIDECDIVPDACKGGMKCVNHYGGYLCLPKTAQIIVNNEQPQQETQPAEGTSGATTGVVAASSMATSGVLPGGGFVASAAAVAGPEMQTGRNNFVIRRNPADPQRIPSNPSHRIQCAAGYEQSEHNVCQDIDECTAGTHNCRADQVCINLRGSFACQCPPGYQKRGEQCVDIDECTIPPYCHQRCVNTPGSFYCQCSPGFQLAANNYTCVDINECDASNQCAQQCYNILGSFICQCNQGYELSSDRLNCEDIDECRTSSYLCQYQCVNEPGKFSCMCPQGYQVVRSRTCQDINECETTNECREDEMCWNYHGGFRCYPRNPCQDPYILTPENRCVCPVSNAMCRELPQSIVYKYMSIRSDRSVPSDIFQIQATTIYANTINTFRIKSGNENGEFYLRQTSPVSAMLVLVKSLSGPREHIVDLEMLTVSSIGTFRTSSVLRLTIIVGPFSF
modifications: left off: a dimerising Fc or GST

Tests used:
[35S]HA-Synoviolin-HAHA = target: T1, [35S]HA-Synoviolin-HAHA (Homo sapiens, UniProt Q86TM6); assay: Binding of Synoviolin to SL on nylon membrane with [35S]-labeled probe; settings: protein transferred to nylon membrane, 2 hours at room temperature
T1 construct: Expression of Full-Length Synoviolin Recombinant Protein in E. coli; made in house; host or cells: cell-free in vitro translation (TNT-coupled Translation System, Promega) from pcDNA3-HA-synoviolin-HAHA
T1 sequence (Q86TM6 whole entry E545G): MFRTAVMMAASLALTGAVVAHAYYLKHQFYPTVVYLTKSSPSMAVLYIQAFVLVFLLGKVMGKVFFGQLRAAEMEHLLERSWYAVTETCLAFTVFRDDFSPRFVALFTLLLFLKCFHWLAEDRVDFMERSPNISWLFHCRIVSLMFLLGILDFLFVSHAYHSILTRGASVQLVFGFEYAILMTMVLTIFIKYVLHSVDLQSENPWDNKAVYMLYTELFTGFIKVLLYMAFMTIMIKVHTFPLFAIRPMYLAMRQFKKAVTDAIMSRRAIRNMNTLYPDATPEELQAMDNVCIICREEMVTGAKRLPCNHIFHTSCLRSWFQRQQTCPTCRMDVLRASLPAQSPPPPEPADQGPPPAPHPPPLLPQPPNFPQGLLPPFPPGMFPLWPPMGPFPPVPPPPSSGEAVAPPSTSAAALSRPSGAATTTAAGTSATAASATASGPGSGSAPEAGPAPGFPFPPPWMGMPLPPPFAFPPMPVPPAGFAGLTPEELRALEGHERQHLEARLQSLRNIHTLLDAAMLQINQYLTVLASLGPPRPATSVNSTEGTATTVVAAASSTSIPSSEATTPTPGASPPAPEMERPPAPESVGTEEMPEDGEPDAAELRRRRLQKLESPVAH
Description: The SL cDNA was inserted into a pGEX vector in the same manner as in Example 3 to prepare GST-SL fusion protein, and the GST-SL (500 ng) was applied to 10% SDS-PAGE along with GST (1 μg) as a control. After SDS-PAGE, it was transferred to a nylon membrane by electroblotting. This nylon membrane was denatured for 1 hour at room temperature with 50 mM Tris-HCl (pH 8.0) containing 6M guanidine hydrochloride and 5 mM 2-mercaptoethanol, and regenerated overnight at 4° C. in 50 mM Tris-HCl (pH 8.0) containing 5 mM 2-mercaptoethanol and 0.05% Tween 20. The regenerated nylon membrane was treated with blocking buffer [10 mM Tris-HCl (pH 8.0), 5% skim milk, 0.1% Triton X-100, 150 mM NaCl, 1 mM EDTA, 5 mM MgCl2, 1 mM DTT, 5% glycerol, protease inhibitor (complete, Boehringer Mannheim)] and washed in blocking buffer (same as above, except for 0.5% skim milk). […] This nylon membrane was washed in 10 mM Tris-HCl (pH 8.0), 0.5% skim milk, 0.1% Triton X-100, 150 mM NaCl, 1 mM EDTA, 5 mM MgCl2, 1 mM DTT, and protease inhibitor (complete, Boehringer Mannheim), and its radioactivity was detected with an image analyzer (BAS2000, Fujix). […]

[1] = tested on: anti-synovial cell anti-serum; assay: Antibody absorption experiment in Western blotting of cell lysates; format: binding, rabbit; settings: RA patient-derived synovial cells, 2.0 mg/mL
Description: First, the various cells used as specimens were solubilized in 1% NP-40 to prepare cell lysates. Each of the cell lysates was treated with 25 mM Tris-HCl (pH 6.8), 0.25% sodium dodecyl sulfate (SDS), 0.05% mercaptoethanol and 0.1% glycerol, and then separated with 8% SDS polyacrylamide electrophoresis (SDS-PAGE). After SDS-PAGE, protein derived from the various cells was transferred to a nitrocellulose (NC) membrane by electroblotting. On this NC membrane, anti-synovial cell anti-serum was diluted 1000 times with Tris buffered saline (TBS) containing 2.0 mg/mL GST-partial Synoviolin fusion protein and 5% skim milk, and subjected to immune reaction for 60 minutes at room temperature. In addition, as negative controls, an experiment wherein the same antibody solution is reacted with the NC membrane, and an experiment wherein the GST-partial Synoviolin fusion protein in the antibody solution is replaced with GST alone were performed at the same time. After the reaction, the NC membrane was washed with 0.1% Tween 20/TBS, subjected to an immune reaction for 60 minutes at room temperature with horseradish peroxidase (HRP) labeled anti-rabbit IgG antibodies as the secondary antibodies, and washed with 0.1% Tween 20/TBS, and the target antigen was detected by detecting HRP activity. […]

[2] = tested on: anti-synovial cell anti-serum; assay: Antibody absorption test in synovial tissue staining; format: binding, rabbit; settings: 2.0 mg/mL added to anti-serum
Description: The staining of RA patient-derived synovial tissue was performed by fixing synovial tissue upon glass slides by the ordinary method. A sample subjected to 30-minute blocking with 1% BSA was allowed to undergo immune reaction for 60 minutes at room temperature with anti-synovial cell anti-serum diluted 100 times with 1% BSA. After reaction, the sample was washed with PBS and then allowed to undergo immune reaction using HRP-labeled anti-rabbit IgG antibodies as the secondary antibody. Confirmation of the antigen in the immune reaction with anti-synovial cell anti-serum was performed by the coloring of 3,3′-diaminobenzidine tetrahydrochloride based on HRP activity. In the same manner as in the aforementioned Western blotting, GST-partial Synoviolin fusion protein was used to perform an anti-synovial cell anti-serum absorption test with respect to synovial tissue staining. Tissue staining was performed by adding 2.0 mg/mL of GST-partial Synoviolin fusion protein or GST (2.0 mg/mL) to anti-synovial cell anti-serum.

[3] = tested on: anti-synovial cell anti-serum; assay: Antibody absorption in fluorescent immunostaining of synovial cells; format: binding, rabbit
Description: Immunostaining was performed by fixing synovial cells upon glass slides by the ordinary method, and immunostaining was performed using the anti-synovial cell anti-serum of Example 1. A sample subjected to 30-minute blocking with 1% bovine serum albumin (BSA) was allowed to undergo immune reaction for 60 minutes at room temperature with anti-synovial cell anti-serum diluted 100 times with 1% BSA. In addition, along with observation with anti-serum, experiments were also performed using anti-synovial cell antibodies purified from this anti-serum. Purified anti-synovial cell antibodies were prepared by immunoaffinity purification using GST-partial Synoviolin fusion protein as a ligand. The ligand used was a fusion protein expressed after the GST-fusion protein expression vector pGEX-5X-3 containing the 1799 bp synoviolin gene up to No. 1233-3031 of SEQ ID NO: 1 was transformed into BL21. A Glutathione Sepharose column was produced by the method of the Pharmacia Corp, to prepare a GST-partial syno-GS column. As a control for the case where purified anti-synovial cell antibodies were used, an anti-GST antibody obtained by the immunoaffinity purification of anti-serum in the same manner where GST was used as the ligand was used. […]

[4] = tested on: RA patient-derived synovial cells; assay: MTT assay of synovial cell hyperplasia; format: cell-based, human; settings: 1 μM, three days of culture, 10%-FCS/DMEM, 37° C., 5% CO2
Description: The RA patient-derived synovial cells prepared in Example 1 were used to prepare 96 well plates so that there were 5×10^3 cells/well, and GST or GST-partial Synoviolin was added to the cell supernatant so that the final concentration became 0.01 to 1 μM. After three days of culture, 3-(4,5-dimethyl-2-thiazolyl)-2,5-diphenyl-2H-tetrazolium bromide (MTT)/PBS was added to the cell supernatant, and it was cultured for 3 hours under conditions of 37° C. and 5% CO2. After culturing, the cell supernatant was removed, crystals of MTT formazan were dissolved with dimethyl sulfoxide, and absorbance measurement was performed (Journal of Immunological Methods, 65, 55, 1983).

| Molecule | binding to [35S]HA-Synoviolin-HAHA ([35S]HA-Synoviolin-HAHA) | immune reaction of anti-synovial cell anti-serum to the 220 kDa protein [1] | immune reaction of anti-synovial cell anti-serum to the approximately 140 kDa and approximately 185 kDa proteins [1] | staining of synovial tissue with anti-synovial cell anti-serum [2] | immune reaction of anti-synovial cell anti-serum with RA patient-derived synovial cells [3] | RA patient-derived synovial cell hyperplasia [4] |
| --- | --- | --- | --- | --- | --- | --- |
| glutathione S-transferase [GST, reference compound] | not observed | – | – | – | – | – |
| B1 | – | blocked | partially blocked | weakened | blocked | significantly suppressed |
| B2 | observed | – | – | – | – | – |

From US7632507B2, “Synovial cell protein” (St. Marianna University School of Medicine, priority 2000, dated 2009)
